Laboratory results reported in patent US20200165324A1.

Columns and labels:
[1] = target: JR-CSF M373A
[2] = target: JR-CSF P369A
[3] = target: JR-CSF V372A
[4] = target: JR-CSF D279A
[5] = target: BG505 D474A
[6] = target: BG505 N276A
[7] = target: JR-CSF K282A
[8] = target: BG505 N262A
[9] = target: JR-CSF D474A
[10] = target: Env of the 117-virus panel (117 cross-clade virus panel); assay: cell-based or functional assay
[11] = target: Env of the 12-virus indicator panel; assay: cell-based or functional assay
[12] = target: stabilized BG505 SOSIP construct MD39 (HIV isolate BG505); assay: competition ELISA on MD39 vs PGT151
[13] = target: stabilized BG505 SOSIP construct MD39 (HIV isolate BG505); assay: competition ELISA on MD39 vs CH103
[14] = target: stabilized BG505 SOSIP construct MD39 (HIV isolate BG505); assay: competition ELISA on MD39 vs 3BNC117
[15] = target: stabilized BG505 SOSIP construct MD39 (HIV isolate BG505); assay: competition ELISA on MD39 vs 12A12
[16] = target: stabilized BG505 SOSIP construct MD39 (HIV isolate BG505); assay: competition ELISA on MD39 vs PGT128
[17] = target: stabilized BG505 SOSIP construct MD39 (HIV isolate BG505); assay: competition ELISA on MD39 vs PGDM1400
[18] = target: stabilized BG505 SOSIP construct MD39 (HIV isolate BG505); assay: competition ELISA on MD39 vs b12
[19] = target: stabilized BG505 SOSIP construct MD39 (HIV isolate BG505); assay: competition ELISA on MD39 vs PG9
[20] = target: stabilized BG505 SOSIP construct MD39 (HIV isolate BG505); assay: competition ELISA on MD39 vs PGT121
[21] = target: stabilized BG505 SOSIP construct MD39 (HIV isolate BG505); assay: competition ELISA on MD39 vs 35022
[22] = target: stabilized BG505 SOSIP construct MD39 (HIV isolate BG505); assay: competition ELISA on MD39 vs Self
[23] = target: stabilized BG505 SOSIP construct MD39 (HIV isolate BG505); assay: competition ELISA on MD39 vs VRC01
[24] = target: gp120 (isolate 92BR020) (HIV-1 isolate 92BR020); assay: ELISA on gp120 (isolate 92BR020), buffer pH 5.5
[25] = target: gp120 (isolate 92BR020) (HIV-1 isolate 92BR020); assay: ELISA on gp120 (isolate 92BR020), buffer pH 6

B1: NC-Cow1 (antibody)
VH: QVQLRESGPSLMKPSQTLSLTCTVSGSSLNDKSVGWVRQAPGKALQWLGSVDTSGNTDYNPGLKSRLSITKDNSKSRISLTVTGMTTEDSATYYCITAHQKTNKKECPEDYTYNPRCPQQYGWSDCDCMGDRFGGYCRQDGCSNYIHRSTYEWYVSAWGQGLLVTVSS
VL: SYELTQPSSVSGSLGQRVSVTCSGSSSNVGNGYVSWYQLIPGSAPRTIIYGDTSRASGVPERFSGSRSGNTATLTISSLQAEDEADFFCASPDDSSSNAVFGSGTTLTVL
IC50, pseudovirus neutralization [1]: 2.52 µg/mL
IC50, pseudovirus neutralization [2]: 1.24 µg/mL
IC50, pseudovirus neutralization [3]: > 50 µg/mL
IC50, pseudovirus neutralization [4]: 1.02 µg/mL
IC50, pseudovirus neutralization [5]: 0.009 µg/mL
IC50, pseudovirus neutralization [6]: 0.011 µg/mL
IC50, pseudovirus neutralization [7]: > 50 µg/mL
IC50, pseudovirus neutralization [8]: 0.014 µg/mL
IC50, pseudovirus neutralization [9]: 0.744 µg/mL
median IC50 of neutralization on the 117-virus panel [10]: 0.028 µg/mL
neutralization breadth on the 117-virus panel (pseudovirus, TZM-bl cells) [10]: 72%
median IC50 of neutralization on the 12-virus indicator panel [11]: 0.007 µg/mL
neutralization breadth on the 12-virus indicator panel [11]: 100%

B2: NC-Cow5 (antibody)
VH: QVQLQESGPSLVKPSQTLSLTCMVSGFSLNDKAVGWVRQAPGKALEWLGSIDAGGSTGYNPGLKSRLSISKDNSKNQVSLSVSSVTTEDSATYYCGTVHQRTQPKQTCPNGYSDDSALRYYSRCSDRDCWRCTGTTYYDTCQCSSYTYIHTYELYVDAWGQGLLVTVSS
VL: QDVLTQPSSVSGSLGQRVSITCSGSSSNVGNGYVSWYQLIPGSAPRTLIYGDTSRASGVPDRFSGSRSGNTATLTISSLQAEDEADYFCASPEDSSSNAVFGSGTTLTVL
competition value [12]: 2
competition value [13]: 38
competition value [14]: 94
competition value [15]: 95
competition value [16]: 71
competition value [17]: 3
competition value [18]: 23
competition value [19]: 21
competition value [20]: 21
competition value [21]: 14
competition value [22]: 37
competition value [23]: 95

B3: NC-Cow7 (antibody)
VH: KVQLRESGPSLVKPFETLSLTCTGSGFSLSDKAAGWVRQAPGKAPEWLGSIDTGGNTGYNPGLKYRLSITKDNSKSQVSLSVSSMTSEDSATYYCTTVHQKAYKKVCPDDYSSNPDCVRLYGWSHCDCMRDSFGGWCRADGCSSTVEIGPYEWYVNAWGQGLLVTVSS
VL: QAVLTQPSSVSGSLGQRVSITCSGSSSNVGNGYVSWYQLIPGSAPRSLIYGDTSRASGVPDRFSGSRSGNTATLTISSLQAEDEADYFCASPEDSSSNGVFGSGTTLTVL
competition value [12]: 20
competition value [13]: 35
competition value [14]: 90
competition value [15]: 92
competition value [16]: 31
competition value [17]: 12
competition value [18]: 9
competition value [19]: 8
competition value [20]: 23
competition value [21]: 5
competition value [22]: 90
competition value [23]: 87

B4: NC-Cow2 (antibody)
VH: KVQLRESGPSLVKPSQTLSLTCMVSGSSLSDKAVGWVRQAPGKALEWLGIISAGGNRGYNSGLRSRLTISKDNSKNEVSLRVRSVTTEDSATYFCGTVHQKTQRKPICPDGYSDDSTLRYYSRCSDRDCWRCTGTTYYDTCQCGTYTWIDTHELHVDAWGQGLLVTVSS
VL: QAVLNQPSSVSGSLGQRVSITCSGSSSNVGNGYVSWYQLIPGSAPRTLIYGDTSRASGVPDRFSGSRSGNTATLTISSLQAEDEADYFCASAEDSSSNAVFGSGTTLTVL
competition value [12]: 11
competition value [13]: 11
competition value [14]: 93
competition value [15]: 94
competition value [16]: 57
competition value [17]: 18
competition value [18]: 0
competition value [19]: 4
competition value [20]: 27
competition value [21]: 11
competition value [22]: 91
competition value [23]: 93

B5: NC-Cow4 (antibody)
VH: KVQLRESGPSLVKPSQTLSLTCMVSGFSLNDEAVGWVRQAPGKALEWLGSIDAGGSTGYNPGLKSRLSISKDNSKNQVSLSVSSVTTEDSATYYCGTVHQRTQPKQTCPNGYSDDSALRYYSRCSDRDCWRCTGTTYYDTCQCSSYTYIHTYELYVDAWGQGLLVTVSS
VL: QAVLTQPSSVSGSLGQRVSITCSGSSSNVGNGYVSWYQLIPGSAPRTLIYGDTSRASGVPDRFSGSRSGNTATLTISSLQAEDEADYFCASPEDSSSNAVFGSGTTLTVL
competition value [12]: 20
competition value [13]: 13
competition value [14]: 95
competition value [15]: 95
competition value [16]: 35
competition value [17]: 22
competition value [18]: 29
competition value [19]: 7
competition value [20]: -11
competition value [21]: 18
competition value [22]: 84
competition value [23]: 94

B6: germline PG9 HC (NC-Cow1 VH CDR3) + mature PG9 LC (antibody)
VH: QVQLVESGGGVVQPGRSLRLSCAASGFTFSSYGMHWVRQAPGKGLEWVAVISYDGSNKYYADSVKGRFTISRDNSKNTLYLQMNSLRAEDTAVYYCITAHQKTNKKECPEDYTYNPRCPQQYGWSDCDCMGDRFGGYCRQDGCSNYIHRSTYEWYVSAWGKGTTVTVSS
VL: QSALTQPASVSGSPGQSITISCNGTSNDVGGYESVSWYQQHPGKAPKVVIYDVSKRPSGVSNRFSGSKSGNTASLTISGLQAEDEGDYYCKSLTSTRRRVFGTGTKLTVL
median IC50 of neutralization on the 12-virus indicator panel [11]: 0.054 µg/mL
neutralization breadth on the 12-virus indicator panel [11]: 88%

B7: PGV04 (antibody, from a related filing, V domains shown)
VH: QVQLVQSGSGVKKPGASVRVSCWTSEDIFERTELIHWVRQAPGQGLEWIGWVKTVTGAVNFGSPDFRQRVSLTRDRDLFTAHMDIRGLTQGDTATYFCARQKFYTGGQGWYFDLWGRGTLIVVSS
VL: EIVLTQSPGTLSLSPGETASLSCTAASYGHMTWYQKKPGQPPKLLIFATSKRASGIPDRFSGSQFGKQYTLTITRMEPEDFARYYCQQLEFFGQGTRLEIR
EC50 (read off the curve) [24]: 0.2 µg/mL
EC50 (read off the curve) [25]: 0.2 µg/mL
